{"source": "patent US20230159649A1", "about": "“METHODS AND COMBINATIONS FOR DUAL TARGETING OF TNF FAMILY MEMBERS” (La Jolla Institute for Immunology, priority 2020, published 2023)", "molecules": {"B1": {"name": "rLIGHT: recombinant LIGHT (TNFSF14) protein (protein)", "chain": "DGPAGSWEQLIQERRSHEVNPAAHLTGANSSLTGSGGPLLWETQLGLAFLRGLSYHDGALVVTKAGYYYIYSKVQLGGVGCPLGLASTITHGLYKRTPRYPEELELLVSQQSPCGRATSSSRVWWDSSFLGGVVHLEAGEKVVVRVLDERLVRLRDGTRSYFGAFMV"}}, "key": {"airways of naïve mice [1]": {"test_system": "airways of naïve mice", "experiment": "Injection of recombinant LIGHT / TL1A into the airways of naïve mice: airway remodeling", "format": "in vivo, mouse", "settings": "for airway remodeling (accumulation of collagen, trichrome): 10 μg intratracheally on two consecutive days, day 3, rLIGHT in DR3−/− mice, rTL1A in LIGHT−/− mice; for remodeling in mice lacking T cells and ILCs: RAG and RAGγc−/− mice; for fibrosis and remodeling after injection of the recombinant protein alone (collagen, αSMA / smooth muscle, airway hyperresponsiveness): naïve mice, into the airways (or skin)", "procedure": "Naïve mice were injected with PBS or 10 μg rLIGHT or rTL1A intratracheally on two consecutive days. On day 3, accumulation of collagen was analyzed in the airways with trichrome staining. (FIG. 3A) rLIGHT was injected into DR3−/− mice, or rTL1A into LIGHT−/− mice. (FIG. 3B) rLIGHT was combined with rTL1A (5 μg each), and the extent of collagen deposition scored as well as the extent of inflammation scored. (FIG. 3C) rLIGHT and rTL1A were injected into RAG−/− mice.\nThe inventors furthered these observations by testing whether LIGHT and TL1A could induce fibrosis and remodeling independently of other inflammatory activity, and of each other, by injecting the recombinant proteins into naïve mice. […] Moreover, the effects of LIGHT and TL1A were not reliant on the other cytokine shown by injection of the proteins into the respective knockout animals."}, "[2]": {"test_system": "normal human epidermal keratinocytes", "experiment": "Human epidermal keratinocytes stimulated with rLIGHT or rTL1A", "format": "cell-based", "settings": "for NF-κB activation (p-p65/RelA): keratinocytes, 25 ng/ml rTL1A or PBS", "procedure": "FIG. 2A-FIG. 2C illustrate LTβR, HVEM, and DR3 are co-expressed or active in lung epithelial cells and fibroblasts, and keratinocytes and dermal fibroblasts. Cultured normal human bronchial epithelial cells and lung fibroblasts, and epidermal keratinocytes and dermal fibroblasts, were stained for expression of (FIG. 2A) LTβR and HVEM, (FIG. 2B) DR3 (isotype controls, gray), or (FIG. 2C) p-p65/RelA NF-κB after culture with 25 ng/ml rTL1A or PBS. Data representative of 2-4 experiments each.\nExperimental Design: 1.1. LIGHT and TL1A co-operate to promote hyperplasia and inflammatory features in human keratinocytes: Firstly, the inventors test how signaling from LIGHT and TL1A directly regulate keratinocytes in vitro. Studies are performed with titrated doses of rLIGHT or rTL1A (0.1-100 ng/ml) vs. PBS, added to normal human epidermal keratinocytes from a minimum of 4 donors (obtained from Lonza) with kinetic analyses, as described previously (7, 8). LIGHT and TL1A have maximal activity in the range 20-100 ng/ml, similar to IL-13 or IL-17. […] The inventors control for specificity with siRNA knockdown of DR3, and then determine synergistic or additive activities, cross-titrating rLIGHT together with rTL1A and measure the extent of cell division and growth. The inventors also test if co-operation is at the level of the receptors (e.g. TL1A enhances expression of the LIGHT receptors)."}, "[3]": {"test_system": "normal human bronchial epithelial cells (HBE)", "experiment": "Human bronchial epithelial cells (HBE) stimulated with rLIGHT or rTL1A", "format": "cell-based", "settings": "for periostin and TSLP expression (IF staining): 48 hrs", "text": "HBE were stimulated with rLIGHT without (black bars) or with (gray bars) budesonide. Data are mean fold increase in mRNA over unstimulated cells after 3 days, measured by RT-PCR. Steroid sensitivity was arbitrarily set at >75% inhibition of the LIGHT-induced response, indicated to the left of the thick dotted lines.\nHBE were stimulated with rLIGHT (left) or rTL1A (right) for 48 hrs and expression of periostin and TSLP examined by IF staining."}, "[4]": {"test_system": "human airway fibroblasts (HAF)", "experiment": "Human airway fibroblasts (HAF) stimulated with rLIGHT or rTL1A with or without TGF-β", "format": "cell-based", "text": "FIG. 9A-FIG. 9D illustrate LIGHT and TL1A induce inflammatory and remodeling activity in human airway fibroblasts (HAF). HAF were stimulated with rLIGHT or rTL1A with or without TGF-β. (FIG. 9A) Proliferation (left, thymidine incorporation) or αSMA mRNA (right) induced by LIGHT, TGF-β or both. (FIG. 9B) mRNA for select genes induced by LIGHT. (FIG. 9C) Collagen 13 and periostin protein (IF stain; DAPI is used for […]) and mRNA induced by TL1A. (FIG. 9D) Proliferation (left, thymidine incorporation) and αSMA mRNA (right) induced by TL1A, TGF-β, or their combination. Data individual cultures or means of triplicates. mRNA either fold increase over unstimulated cells or relative to GAPDH.\nThe inventors compare rTL1A to rLIGHT, titrating each molecule (5-100 ng/ml, their optimal dose range, see (60, 69)). The inventors perform kinetic analyses over 3 days (e.g. 4, 24, 48, 72 hr) and compare data from 4-6 individual cell populations. The inventors initially gain data with normal HAF. […] The inventors additionally have shown that rTL1A can promote activities in HAF that might overlap with, but also be distinct from, LIGHT (FIGS. 9C and 9D)."}, "lung fibroblasts": {"test_system": "lung fibroblasts", "experiment": "Lung fibroblasts stimulated with rTL1A or rLIGHT", "format": "cell-based"}, "airways of naïve mice [5]": {"test_system": "airways of naïve mice", "experiment": "Injection of recombinant LIGHT / TL1A into the airways of naïve mice: airway remodeling", "format": "in vivo, mouse", "settings": "10 μg intratracheally on two consecutive days, day 3"}, "skin of naïve mice": {"test_system": "skin of naïve mice", "experiment": "Subcutaneous / intradermal injection of recombinant LIGHT into mice: skin fibrosis and inflammation", "format": "in vivo, mouse", "text": "Masson trichrome (collagen), alpha Smooth muscle actin (αSMA) and TSLP immunofluorescent staining of skin sections. The data is representative of 6 to 10 mice per group.\nDiseases such as atopic dermatitis (AD) and psoriasis present with extensive tissue remodeling, features shared with diseases of the lungs, such as severe asthma. The inventors have shown that a genetic deficiency in the TNF superfamily molecule LIGHT (TNFSF14, CD258), and blocking LIGHT binding to its receptors, reduced remodeling in the lungs in mouse models of severe asthma and systemic sclerosis (1, 2). […] LIGHT interacts with the TNF superfamily receptors HVEM (herpesvirus entry mediator, TNFRSF14) and LTβR (lymphotoxin beta receptor, TNFRSF3), and TL1A with DR3 (TNFRSF25) (4-6). The studies disclosed herein investigate the combination use of LIGHT and TL1A to control skin tissue remodeling relevant to AD and psoriasis, directly driving deregulated activity in keratinocytes and dermal fibroblasts. In support, the inventors have reported that LIGHT-deficient mice were protected from developing skin inflammation in models of scleroderma (7) and allergen-induced AD (8). […] The inventors have observed that the absence of TL1A/DR3 interactions also markedly limits disease in the same models of AD and psoriasis, and that keratinocytes and fibroblasts co-express DR3 together with the receptors for LIGHT. The inventors determine that LIGHT and TL1A are effectors of skin pathology through driving epidermal hyperplasia and remodeling molecules such as collagen, periostin, and alpha smooth muscle actin in keratinocytes and/or fibroblasts. Through production of other factors such as TSLP, IL-33, and chemokines in these structural cells, LIGHT and TL1A maintain disease through orchestrating immune inflammatory cells in the skin."}, "dermal fibroblasts": {"test_system": "dermal fibroblasts", "experiment": "Dermal fibroblasts stimulated with rLIGHT", "format": "cell-based, human", "settings": "preliminary studies", "text": "LIGHT and TL1A synergistic in driving proliferation and inflammatory activity in dermal fibroblasts: The inventors determine inflammatory events that are triggered by LIGHT and TL1A in normal human dermal fibroblasts, using cells from a minimum of 4 donors, with kinetic analyses. The inventors find that both LIGHT and TL1A induce fibroblast proliferation, and may have differential abilities to induce myofibroblast differentiation. […] The inventors also test a range of inflammatory factors relevant to AD or psoriasis that have receptors on fibroblasts (e.g. LIGHT, IL-13, TGF-β, FGF, TNF, IL-17) to determine if they can promote DR3."}}, "note": "Entries after “also recorded” stand apart in the source; their conditions may differ."}
{"molecule": "rTL1A: recombinant TL1A (TNFSF15) protein [reference compound]", "values": [{"measurement": "airway remodeling (accumulation of collagen, trichrome)", "setting": "airways of naïve mice [1]", "value": "promote airway remodeling"}, {"measurement": "remodeling in mice lacking T cells and ILCs", "setting": "airways of naïve mice [1]", "value": "induced remodeling"}, {"measurement": "fibrosis and remodeling after injection of the recombinant protein alone (collagen, αSMA / smooth muscle, airway hyperresponsiveness)", "setting": "airways of naïve mice [1]; listed as TL1A", "value": "substantial collagen deposition and αSMA accumulation; also recorded: induced a fibroproliferative syndrome"}, {"measurement": "fibrosis and remodeling after injection of the recombinant protein alone (collagen, αSMA / smooth muscle, airway hyperresponsiveness)", "setting": "airways of naïve mice [1]; listed as recombinant TL1A", "value": "rapidly promotes smooth muscle alterations, collagen deposition, and airway hyperresponsiveness"}, {"measurement": "NF-κB activation (p-p65/RelA)", "setting": "[2]", "value": "enhanced NF-κB activation"}, {"measurement": "NF-κB activation (p-p65/RelA)", "setting": "[2]; listed as TL1A", "value": "induce NF-κB activation"}, {"measurement": "periostin and TSLP expression (IF staining)", "setting": "[3]", "value": "promotes fibrotic activity"}, {"measurement": "periostin and TSLP expression (IF staining)", "setting": "[3]; listed as TL1A", "value": "upregulated"}, {"measurement": "collagen 13 and periostin protein and mRNA", "setting": "[4]", "value": "promoting collagen 13 and periostin"}, {"measurement": "proliferation of HAF (thymidine incorporation)", "setting": "[4]; protein alone", "value": "induced proliferation"}, {"measurement": "proliferation of HAF in combination with TGF-β", "setting": "[4]; with TGF-β", "value": "augmented by TGF-β"}, {"measurement": "αSMA mRNA in combination with TGF-β", "setting": "[4]; with TGF-β", "value": "enhanced TGF-β driven αSMA"}, {"measurement": "periostin and collagen in lung fibroblasts", "setting": "lung fibroblasts; protein alone", "value": "induced periostin and collagen"}, {"measurement": "proliferation of lung fibroblasts", "setting": "lung fibroblasts; protein alone", "value": "induced proliferation"}, {"measurement": "αSMA in lung fibroblasts", "setting": "lung fibroblasts; protein alone", "value": "not αSMA"}, {"measurement": "proliferation and αSMA together with TGF", "setting": "lung fibroblasts; with TGF-α as printed", "value": "synergized with TGF-α"}, {"measurement": "αSMA expression in airways", "setting": "airways of naïve mice [5]", "value": "upregulated"}]}
{"molecule": "B1", "values": [{"measurement": "airway remodeling (accumulation of collagen, trichrome)", "setting": "airways of naïve mice [1]", "value": "promote airway remodeling"}, {"measurement": "remodeling in mice lacking T cells and ILCs", "setting": "airways of naïve mice [1]", "value": "induced remodeling"}, {"measurement": "fibrosis and remodeling after injection of the recombinant protein alone (collagen, αSMA / smooth muscle, airway hyperresponsiveness)", "setting": "airways of naïve mice [1]", "value": "reproduce this fibrotic activity"}, {"measurement": "fibrosis and remodeling after injection of the recombinant protein alone (collagen, αSMA / smooth muscle, airway hyperresponsiveness)", "setting": "airways of naïve mice [1]; listed as LIGHT", "value": "rapidly promotes smooth muscle alterations, collagen deposition, and airway hyperresponsiveness; also recorded: substantial collagen deposition and αSMA accumulation; also recorded: increases the accumulation of collagen and alpha-SMA; also recorded: induced a fibroproliferative syndrome"}, {"measurement": "skin fibrosis and remodeling (trichrome, αSMA, TSLP staining)", "setting": "skin of naïve mice; WT mice, intradermal injection, 20 μg/mouse vs PBS", "value": "induces scleroderma; also recorded: induces skin fibrosis and remodeling"}, {"measurement": "cytokines and chemokines induced in vivo", "setting": "skin of naïve mice; injected s.c. into mice", "value": "induced the cytokines IL-33 and IL-25; also recorded: inducing several chemokines"}, {"measurement": "skin disease features after subcutaneous injection", "setting": "skin of naïve mice; naïve mice, subcutaneous injection", "value": "induced features of AD, scleroderma, and psoriasis"}, {"measurement": "induction of TSLP and periostin from keratinocytes", "setting": "[2]", "value": "induce molecules from keratinocytes"}, {"measurement": "proliferation/hyperplasia of human keratinocytes", "setting": "[2]; via both HVEM and LTβR", "value": "induce proliferation/hyperplasia"}, {"measurement": "periostin and TSLP expression (IF staining)", "setting": "[3]", "value": "upregulated"}, {"measurement": "expression of adhesion molecules, proteinases, cytokines and chemokines (mRNA, RT-PCR), steroid sensitivity", "setting": "[3]; 3 days, without or with budesonide", "value": "induce expression; also recorded: promotes steroid-resistant responses"}, {"measurement": "collagen 13 and periostin protein and mRNA", "setting": "[4]", "value": "the former shared with LIGHT but not the latter"}, {"measurement": "myofibroblast differentiation (upregulation of αSMA mRNA)", "setting": "[4]; protein alone", "value": "cannot drive myofibroblast differentiation"}, {"measurement": "proliferation of HAF (thymidine incorporation)", "setting": "[4]; protein alone", "value": "promote proliferation"}, {"measurement": "adhesion molecules, chemokines, cytokines and metalloproteases mRNA", "setting": "[4]; through the LTβR, siRNA knockdown", "value": "induced"}, {"measurement": "TSLP, periostin and αSMA expression", "setting": "dermal fibroblasts", "value": "upregulated TSLP, periostin, and αSMA"}, {"measurement": "chemokines (CCL5, CCL20 CXCL5 CXCL11) in lung fibroblasts", "setting": "lung fibroblasts", "value": "upregulated some chemokines"}, {"measurement": "αSMA expression in airways", "setting": "airways of naïve mice [5]", "value": "upregulated"}]}
